Experimental data from PMC2141769.

B1: p120 (natural protein)
chain: MDDSEVESTASILASVKEQEAQFEKLTRALEEERRHVSAQLERVRVSPQDANPLMANGTLTRRHQNGRFVGDADLERQKFSDLKLNGPQDHSHLLYSTIPRMQEPGQIVETYTEEDPEGAMSVVSVETSDDGTTRRTETTVKKVVKTVTTRTVQPVAMGPDGLPVDASSVSNNYIQTLGRDFRKNGNGGPGPYVGQAGTATLPRNFHYPPDGYSRHYEDGYPGGSDNYGSLSRVTRIEERYRPSMEGYRAPSRQDVYGPQPQVRVGGSSVDLHRFHPEPYGLEDDQRSMGYDDLDYGMMSDYGTARRTGTPSDPRRRLRSYEDMIGEEVPSDQYYWAPLAQHERGSLASLDSLRKGGPPPPNWRQPELPEVIAMLGFRLDAVKSNAAAYLQHLCYRNDKVKTDVRKLKGIPVLVGLLDHPKKEVHLGACGALKNISFGRDQDNKIAIKNCDGVPALVRLLRKARDMDLTEVITGTLWNLSSHDSIKMEIVDHALHALTDEVIIPHSGWEREPNEDCKPRHIEWESVLTNTAGCLRNVSSERSEARRKLRECDGLVDALIFIVQAEIGQKDSDSKLVENCVCLLRNLSYQVHREIPQAERYQEAAPNVANNTGPHAASCFGAKKGKDEWFSRGKKPIEDPANDTVDFPKRTSPARGYELLFQPEVVRIYISLLKESKTPAILEASAGAIQNLCAGRWTYGRYIRSALRQEKALSAIADLLTNEHERVVKAASGALRNLAVDARNKELIGKHAIPNLVKNLPGGQQNSSWNFSEDTVISILNTINEVIAENLEAAKKLRETQGIEKLVLINKSGNRSEKEVRAAALVLQTIWGYKELRKPLEKEGWKKSDFQVNLNNASRSQSSHSYDDSTLPLIDRNQKSDKKPDREEIQMSNMGSNTKSLDNNYSTPNERGDHNRTLDRSGDLGDMEPLKGTTPLMQDEGQESLEEELDVLVLDDEGGQVSYPSMQKI

Key:
[1] = molecular target: EC0, mutant E-cadherin protein that completely lacks the cytoplasmic domain; assay: cross-linking
[2] = molecular target: EΔC37, mutant E-cadherin polypeptide with COOH-terminal deletion of 37 amino acid residues; assay: co-IP
[3] = molecular target: EΔC71, mutant E-cadherin polypeptide with COOH-terminal deletion of 71 amino acid residues; assay: co-IP

| Molecule | stoichiometry N [1] | amount of p120 coprecipitated, percent of EK cells [2] | amount of p120 coprecipitated, percent of EK cells [3] |
| --- | --- | --- | --- |
| EC0, mutant E-cadherin protein that completely lacks the cytoplasmic domain (domain or fragment) | 2 | – | – |
| B1 | – | 10% | 10% |
